Data: patent publication US20210340205A1 (Novartis, published 2021)

Target: T1, Human cRET(ECD)-Fc (human)
T1 construct: also called RET-Fc
Assay: MSD plate assay, cRET(ECD)-Fc coated; biotinylated anti-6xHis mAb and streptavidin sulfo-tag
Protocol: Methods: To generate soluble GDF15/GFRAL complexes in vitro, recombinant GFRAL(D2D3)-App, GFRAL(ECD)-His, and GFRAL(ECD)-Fc proteins purified in Example 1 were freshly mixed with equimolar amounts of biotinylated His-GDF15 (1250 pM) in DPBS supplemented with 50 μM CaCl₂. The mixtures were incubated at room temperature for 60 min to allow complex formation. The complex made was stable at 4° C. and was used directly for in vitro binding assays against cRET(ECD)-Fc coated on plastic plates without further purification. Three different GDF15/GFRAL ECD complexes were prepared, including His-GDF15(biotin)/GFRAL(D2D3)-App, His-GDF15(biotin)/GFRAL (ECD)-His, and His-GDF15(biotin)/GFRAL (ECD)-Fc in the same manner. […] His-GDF15(L294R) was mixed with GFRAL(ECD)-His to generate a negative control for GDF15/GFRAL/cRET interaction. […]
Methods: Mixtures of purified biotinylated His-GDF15 and GFRAL(ECD)-His or His-GDF15(L294R) and GFRAL(ECD)-His were prepared as described in Example 3. […] Binding of proteins to plates coated with cRET(ECD)-Fc was detected using biotinylated mouse anti-6×His tag monoclonal antibody followed by streptavidin sulfo-tag, and otherwise by methods described in Example 3.

T1 sequence (chain, as listed by the source): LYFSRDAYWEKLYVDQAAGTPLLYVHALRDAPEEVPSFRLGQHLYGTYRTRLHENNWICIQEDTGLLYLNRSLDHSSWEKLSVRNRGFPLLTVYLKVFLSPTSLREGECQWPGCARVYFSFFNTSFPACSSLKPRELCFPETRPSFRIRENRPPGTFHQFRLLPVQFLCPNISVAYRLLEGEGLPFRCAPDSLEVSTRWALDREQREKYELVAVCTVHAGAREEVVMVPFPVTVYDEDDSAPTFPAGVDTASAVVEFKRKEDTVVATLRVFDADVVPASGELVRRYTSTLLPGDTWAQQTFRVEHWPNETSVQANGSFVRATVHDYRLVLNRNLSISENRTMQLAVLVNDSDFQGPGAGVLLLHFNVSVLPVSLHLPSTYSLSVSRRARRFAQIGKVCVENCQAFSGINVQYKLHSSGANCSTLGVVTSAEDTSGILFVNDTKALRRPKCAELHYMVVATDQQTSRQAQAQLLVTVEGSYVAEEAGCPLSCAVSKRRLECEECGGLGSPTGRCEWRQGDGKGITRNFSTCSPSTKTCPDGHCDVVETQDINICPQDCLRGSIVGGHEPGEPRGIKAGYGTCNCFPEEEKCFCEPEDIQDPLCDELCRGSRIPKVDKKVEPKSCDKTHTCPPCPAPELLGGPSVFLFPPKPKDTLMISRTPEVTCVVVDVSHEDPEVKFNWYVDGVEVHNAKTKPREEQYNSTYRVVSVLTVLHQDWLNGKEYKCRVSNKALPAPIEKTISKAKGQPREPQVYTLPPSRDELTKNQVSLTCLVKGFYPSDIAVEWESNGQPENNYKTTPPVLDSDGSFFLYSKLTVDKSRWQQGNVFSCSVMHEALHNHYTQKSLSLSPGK

B1: His-GDF15(L294R)/GFRAL(ECD)-His mixture (other)
chain 1: HHHHHHGSGGARNGDHCPLGPGRCCRLHTVRASLEDLGWADWVLSPREVQVTMCIGACPSQFRAANMHAQIKTSLHRLKPDTVPAPCCVPASYNPMVLIQKTDTGVSRQTYDDLLAKDCHCI
chain 2: QTNNCTYLREQCLRDANGCKHAWRVMEDACNDSDPGDPCKMRNSSYCNLSIQYLVESNFQFKECLCTDDFYCTVNKLLGKKCINKSDNVKEDKFKWNLTTRSHHGFKGMWSCLEVAEACVGDVVCNAQLASYLKACSANGNPCDLKQCQAAIRFFYQNIPFNIAQMLAFCDCAQSDIPCQQSKEALHSKTCAVNMVPPPTCLSVIRSCQNDELCRRHYRTFQSKCWQRVTRKCHEDENCISTLSKQDLTCSGSDDCKAAYIDILGTVLQVQCTCRTITQSEESLCKIFQHMLHRKSCFNYPTLSNVKGMALYTRKHANKITLTGFHSPFNGEGSHHHHHH
binding result: no binding (tested: 0-5 log 10 pM)

B2: His-GDF15(L294R) (ligand)
chain: B1 chain 1
notes: Non-functional mutant, prepared in the same way as wild-type His-GDF15 (E. coli, see US 2017/204149); also called His-GDF15(L294R) mutant
binding result: no binding (tested: 0-5 log 10 pM)
